Measurements taken from FireProtDB (doi:10.1016/j.bpj.2010.04.076).

B1: Adenylate kinase, P16304 (parent)
chain: MNLVLMGLPGAGKGTQGERIVEDYGIPHISTGDMFRAAMKEETPLGLEAKSYIDKGELVPDEVTIGIVKERLGKDDCERGFLLDGFPRTVAQAEALEEILEEYGKPIDYVINIEVDKDVLMERLTGRRICSVCGTTYHLVFNPPKTPGICDKDGGELYQRADDNEETVSKRLEVNMKQTQPLLDFYSEKGYLANVNGQQDIQDVYADVKDLLGGLKK

Variants of: B1
Settings: Bacillus subtilis (strain 168), pH 7, CD, transition: 2, reversible: yes, structure 2EU8, whole UniProt chain shown; for ddG of mutation (higher = less stable) / unfolding free energy: 20 °C, GdnHCl, Phosphate buffer 10mM; for Tm / change of melting temperature, mutant - wild type (higher = more stable): Thermal, KH2PO4 10mM

Row | Variant | ddG of mutation (higher = less stable) [kcal/mol] | unfolding free energy [kcal/mol] | Tm [°C] | change of melting temperature, mutant - wild type (higher = more stable) [°C]
1 | Q199R T179I | -2.4 | 5.74 | 53.3 | 4.9
2 | Q199R G214R | -2.63 | 5.97 | 53.4 | 5
3 | Q199R G214A |  |  | 49.1 | 0.7
4 | Q199R G214K |  |  | 48.4 | 0
5 | Q199R Q16L | -3.35 | 6.69 | 63.3 | 14.9
6 | A193V |  |  | 48.9 | 0.5
7 | Q199R | -0.48 | 3.82 | 49.5 | 1.1
8 | T179I |  |  | 47.8 | -0.6
9 | Q199R A193V | -2.87 | 6.21 | 54.6 | 6.2
10 | Q199R G213A |  |  | 37.9 | -10.5
11 | Q199R G213E | -1.68 | 5.02 | 51.4 | 3
12 | Q199R G213Q |  |  | 39.3 | -9.1
13 | G214R |  |  | 49.8 | 1.4
